± gives the standard deviation of the averaged measurements.
Test system: ATP
Experiment: switch fluorescence ratio, 500 uM ATP over buffer (Cy3 cluster intensity, sum of 5 cycles each) (fold (ratio)); higher = stronger signal-on switching upon ATP binding; sequences stand for … in TCGTCGGCAGCGTCAGATGTGTATAAGAGACAGTTTTTTTTTTTTTTTTTTTTTTTTT…TC
Conditions: aptamer strand: ATP DNA aptamer (quencher-CACCTGGGGGAGTATTGCGGAGGAAGG + anchor), 100 nM annealed; ATP concentration: 500 uM
Summary of the method: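 Cy3-labelled switching-strand clusters on a modified Illumina MiSeq flow-cell were annealed to 100 nM quencher-labelled ATP aptamer, imaged in selection buffer, then imaged after 15 min with 500 uM ATP at 22 °C. Five buffer/ATP cycles ran, with NaOH stripping and re-annealing between them. The fluorescence ratio is summed target-cycle over summed buffer-cycle Cy3 intensity per cluster, averaged per switch-domain sequence. Clusters outside 100-1000 RFU were excluded.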
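Note: ATP exposure 15 min at 22 °C before imaging.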

Row | Sequence | switch fluorescence ratio
1 | GCGATTGATG | 1.02 ± 0.026
2 | GCGATTGTGT | 1.002 ± 0.0055
3 | GCGATTTCGG | 0.985 ± 0.023
4 | GCGCACCACG | 1.06 ± 0.029
5 | GCGCATGAAG | 0.983 ± 0.013
6 | GCGCATTTAG | 1.15 ± 0.066
7 | GCGCCCAGTT | 1.003 ± 0.0029
8 | GCGCCCATGA | 0.982 ± 0.043
9 | GCGCCGTGGC | 0.99035 ± 0.00081
10 | GCGCCTTAAA | 0.967 ± 0.041
11 | GCGCTAGATG | 1.008 ± 0.0093
12 | GCGCTAGTTT | 1 ± 0.016
13 | GCGCTCGGCA | 1.019 ± 0.00084
14 | GCGCTGGGTG | 1.11 ± 0.16
15 | GCGCTGGTTT | 0.99 ± 0.034
16 | GCGCTTACTA | 1.31 ± 0.079
17 | GCGGAACGGT | 1.03 ± 0.034
18 | GCGGAAGAGC | 1.06 ± 0.032
19 | GCGGAAGGCG | 1 ± 0.018
20 | GCGGAAGGGT | 1 ± 0.04
21 | GCGGACAGTT | 0.9675 ± 0.0086
22 | GCGGACGGAC | 1.08 ± 0.061
23 | GCGGCGGGGA | 1.01 ± 0.039
24 | GCGGCGTGTC | 1.028 ± 0.0083
25 | GCGGCTATGG | 1.01 ± 0.019

Row | Sequence | switch fluorescence ratio
26 | GCGGCTGGGA | 1.047 ± 0.0092
27 | GCGGCTGGTT | 0.981 ± 0.05
28 | GCGGCTTGGG | 1.03 ± 0.055
29 | GCGGGAAAGT | 0.9568 ± 0.009
30 | GCGGGACCCG | 1.01 ± 0.016
31 | GCGGGAGAGG | 1.02 ± 0.033
32 | GCGGGAGGAT | 1.031 ± 0.01
33 | GCGGGAGGGA | 1.03 ± 0.015
34 | GCGGGAGGGT | 1.015 ± 0.0081
35 | GCGGGATGGC | 1.007 ± 0.0087
36 | GCGGGATTCG | 0.998 ± 0.059
37 | GCGGGCCTTG | 0.984 ± 0.068
38 | GCGGGCGGGA | 1.031 ± 0.0098
39 | GCGGGCGTCG | 0.994 ± 0.048
40 | GCGGGGAACA | 1 ± 0.017
41 | GCGGGGACGT | 1.02 ± 0.027
42 | GCGGGGAGGG | 1.05 ± 0.033
43 | GCGGGGGGCT | 1.03 ± 0.041
44 | GCGGGGGTCA | 0.974 ± 0.05
45 | GCGGGGGTGC | 1.03 ± 0.048
46 | GCGGGGTAGT | 1.008 ± 0.0044
47 | GCGGGGTATC | 1.09 ± 0.18
48 | GCGGGGTGGG | 0.9835 ± 0.0051
49 | GCGGGGTGTT | 1.03 ± 0.013
50 | GCGGGGTTAT | 1.03 ± 0.011

Row | Sequence | switch fluorescence ratio
51 | GCGGGTATGG | 1 ± 0.021
52 | GCGGGTCGGA | 1.02 ± 0.039
53 | GCGGGTGAGG | 1.02 ± 0.026
54 | GCGGGTGGAT | 1.01 ± 0.053
55 | GCGGGTGGCT | 1.03 ± 0.019
56 | GCGGGTGGGA | 1.02 ± 0.034
57 | GCGGGTTAAG | 0.9832 ± 0.0023
58 | GCGGGTTTTA | 1.006 ± 0.0083
59 | GCGGTAATTT | 1 ± 0.024
60 | GCGGTACTCT | 2.27 ± 0.41
61 | GCGGTAGAGC | 1.017 ± 0.0099
62 | GCGGTCAGGG | 1.01 ± 0.016
63 | GCGGTCATGG | 0.992 ± 0.046
64 | GCGGTCCCCG | 1.11 ± 0.031
65 | GCGGTGCCTG | 0.977 ± 0.042
66 | GCGGTTAGAA | 1.02 ± 0.026
67 | GCGGTTCCTG | 0.9829 ± 0.0076
68 | GCGGTTGGGG | 1.01 ± 0.018
69 | GCGGTTGTCG | 1.01 ± 0.03
70 | GCGGTTTCGG | 0.994 ± 0.024
71 | GCGGTTTGAC | 1.03 ± 0.018
72 | GCGTAAAGGT | 1.014 ± 0.0064
73 | GCGTAACCGT | 0.99 ± 0.038
74 | GCGTAAGGGT | 0.985 ± 0.012
75 | GCGTAAGGTG | 1.1 ± 0.084

Row | Sequence | switch fluorescence ratio
76 | GCGTACTCAA | 1.11 ± 0.043
77 | GCGTAGAATC | 1.02 ± 0.018
78 | GCGTAGGGCC | 1.03 ± 0.027
79 | GCGTATCTTA | 0.968 ± 0.014
80 | GCGTCAATTG | 1.02 ± 0.035
81 | GCGTCAGGTG | 3.82 ± 0.21
82 | GCGTCCGCGG | 1.26 ± 0.041
83 | GCGTCGGGGA | 1 ± 0.047
84 | GCGTCTAATC | 0.994 ± 0.011
85 | GCGTGAAGAA | 1.03 ± 0.029
86 | GCGTGATTGC | 1.06 ± 0.031
87 | GCGTGCTGAA | 1.04 ± 0.043
88 | GCGTGGAGGG | 1.013 ± 0.0029
89 | GCGTGGGGGA | 1 ± 0.039
90 | GCGTGGGGGC | 1.02 ± 0.019
91 | GCGTTACTTA | 1.06 ± 0.018
92 | GCGTTCGGGC | 1 ± 0.029
93 | GCGTTGGGGC | 1 ± 0.054
94 | GCGTTGTGAA | 0.9835 ± 0.0057
95 | GCGTTGTGGC | 1.01 ± 0.05
96 | GCGTTGTTGT | 0.981 ± 0.02
97 | GCGTTTAGTA | 0.992 ± 0.03
98 | GCGTTTATAC | 1.96 ± 0.56
99 | GCGTTTGGGT | 0.9955 ± 0.0041
100 | GCGTTTGGTA | 0.988 ± 0.04

Row | Sequence | switch fluorescence ratio
101 | GCGTTTTGAG | 0.981 ± 0.025
102 | GCGTTTTGCA | 0.978 ± 0.015
103 | GCGTTTTTCA | 0.9801 ± 0.0094
104 | GCTAAAAAGC | 0.998 ± 0.033
105 | GCTAAACGTG | 0.959 ± 0.014
106 | GCTAAAGGTC | 1.05 ± 0.044
107 | GCTAAATCGC | 1.04 ± 0.034
108 | GCTAAATGTT | 0.988 ± 0.015
109 | GCTAACCATT | 1.1 ± 0.15
110 | GCTAACGTGC | 0.993 ± 0.046
111 | GCTAAGCCTG | 1.03 ± 0.017
112 | GCTAATAGCC | 1.059 ± 0.00084
113 | GCTAATGGGA | 0.994 ± 0.018
114 | GCTAATTGCA | 1.03 ± 0.057
115 | GCTACAGCTA | 1.01 ± 0.04
116 | GCTACCTTTT | 1.06 ± 0.069
117 | GCTACTACTG | 1.05 ± 0.022
118 | GCTACTTTGC | 1.037 ± 0.0045
119 | GCTAGAAAGA | 0.972 ± 0.0073
120 | GCTAGAGGGG | 1.02 ± 0.048
121 | GCTAGAGTGC | 0.979 ± 0.021
122 | GCTAGATGCG | 0.973 ± 0.03
123 | GCTAGCGTTC | 1 ± 0.013
124 | GCTAGCTAAG | 1.034 ± 0.0011
125 | GCTAGGGGTG | 1.07 ± 0.055

Row | Sequence | switch fluorescence ratio
126 | GCTAGGGTGG | 0.994 ± 0.018
127 | GCTAGGGTTT | 0.965 ± 0.015
128 | GCTAGTAAAA | 1.02 ± 0.029
129 | GCTAGTATG | 0.9954 ± 0.0072
130 | GCTAGTGGTG | 1.04 ± 0.018
131 | GCTAGTGTGG | 1.03 ± 0.015
132 | GCTAGTTGGG | 0.9998 ± 0.0015
133 | GCTATACAGC | 1.03 ± 0.049
134 | GCTATAGTAT | 0.998 ± 0.0056
135 | GCTATATTTT | 0.982 ± 0.017
136 | GCTATCACCA | 1.31 ± 0.32
137 | GCTATCCCTG | 1.05 ± 0.018
138 | GCTATCGAGT | 1.01 ± 0.018
139 | GCTATCGTGC | 0.975 ± 0.013
140 | GCTATCTTAT | 0.9798 ± 0.008
141 | GCTATGAAAG | 0.995 ± 0.013
142 | GCTATGAATG | 1.01 ± 0.024
143 | GCTATGAGAC | 1.03 ± 0.055
144 | GCTATGAGTA | 0.9832 ± 0.0097
145 | GCTATGTGGG | 1.003 ± 0.0041
146 | GCTATTAGTG | 0.9892 ± 0.0051
147 | GCTATTGGGT | 0.95 ± 0.022
148 | GCTATTTGGA | 0.997 ± 0.012
149 | GCTCAACAGA | 1.022 ± 0.0057
150 | GCTCAACGGT | 0.9561 ± 0.0041

Row | Sequence | switch fluorescence ratio
151 | GCTCACACGG | 1.62 ± 0.023
152 | GCTCACCTAT | 1.05 ± 0.048
153 | GCTCAGGGGA | 1.21 ± 0.097
154 | GCTCATAAAA | 1.001 ± 0.0065
155 | GCTCATGAGC | 1.007 ± 0.0093
156 | GCTCCCTGAG | 1.056 ± 0.0076
157 | GCTCCTGAGG | 1.073 ± 0.0081
158 | GCTCCTGTGC | 1.1992 ± 0.00049
159 | GCTCGATGTG | 1 ± 0.015
160 | GCTCGGTCGG | 1.02 ± 0.037
161 | GCTCGTAAGT | 1.01 ± 0.0049
162 | GCTCTAATGC | 1.17 ± 0.096
163 | GCTCTAGTGT | 0.996 ± 0.013
164 | GCTCTATCAC | 1.04 ± 0.035
165 | GCTCTATTAT | 1.11 ± 0.16
166 | GCTCTCGGTA | 1.03 ± 0.039
167 | GCTCTGAGTG | 1.013 ± 0.0075
168 | GCTCTGTCGG | 1.02 ± 0.012
169 | GCTCTTAGTT | 0.992 ± 0.018
170 | GCTCTTTGGG | 1.06 ± 0.13
171 | GCTGAGGGTG | 1.01 ± 0.028
172 | GCTGATATCC | 1.01 ± 0.048
173 | GCTGATGTTT | 1.023 ± 0.0095
174 | GCTGATTGGA | 0.979 ± 0.055
175 | GCTGCATGTA | 1.02 ± 0.028

Row | Sequence | switch fluorescence ratio
176 | GCTGCGCCGT | 1.004 ± 0.0092
177 | GCTGCGGGGA | 0.9929 ± 0.0071
178 | GCTGCGGGTC | 1.02 ± 0.033
179 | GCTGCTAAGG | 0.987 ± 0.056
180 | GCTGCTATTG | 0.994 ± 0.02
181 | GCTGCTTTTT | 1.01 ± 0.041
182 | GCTGGCAGTG | 0.972 ± 0.029
183 | GCTGGGAAGG | 0.978 ± 0.013
184 | GCTGGGAGGG | 0.979 ± 0.022
185 | GCTGGGATAG | 1.01 ± 0.019
186 | GCTGGGCACT | 1.01 ± 0.035
187 | GCTGGGGGCA | 1.05 ± 0.098
188 | GCTGGGGGTT | 0.996 ± 0.059
189 | GCTGGGGTCG | 0.9631 ± 0.0029
190 | GCTGGGGTTA | 0.996 ± 0.019
191 | GCTGGGGTTG | 0.9839 ± 0.003
192 | GCTGGGTTTC | 0.996 ± 0.02
193 | GCTGGGTTTG | 0.9866 ± 0.0088
194 | GCTGGTAGGG | 1.01 ± 0.026
195 | GCTGGTGGGG | 0.964 ± 0.05
196 | GCTGGTGGGT | 0.988 ± 0.012
197 | GCTGGTTTAG | 1.006 ± 0.0039
198 | GCTGGTTTTG | 0.9716 ± 0.004
199 | GCTGTAAAGC | 1.03 ± 0.092
200 | GCTGTAAGTA | 0.988 ± 0.017
